T1: TGF-β2 (UniProt P61812)
T1 sequence (looked up): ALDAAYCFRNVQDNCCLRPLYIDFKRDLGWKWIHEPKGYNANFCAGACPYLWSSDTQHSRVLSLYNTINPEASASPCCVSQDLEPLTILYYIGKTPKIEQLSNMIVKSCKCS


Columns and labels:
Test in all cases: cell-based or functional assay
TGF-β1 = TGF-β1 (UniProt P01137)
TGF-β2 = biological target: T1, TGF-β2
TGF-β3 = TGF-β3 (UniProt P10600)
TGF-β3, sequence (P10600 301-412 limits assumed): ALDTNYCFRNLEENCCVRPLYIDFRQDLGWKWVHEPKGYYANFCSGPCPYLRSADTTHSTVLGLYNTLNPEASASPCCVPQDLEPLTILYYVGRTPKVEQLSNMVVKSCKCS

TGF-β1, sequence (P01137 279-390 limits assumed): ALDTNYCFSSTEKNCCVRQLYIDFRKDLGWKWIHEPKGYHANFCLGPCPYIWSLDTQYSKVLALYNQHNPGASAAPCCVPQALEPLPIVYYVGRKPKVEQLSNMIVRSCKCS

Row | Binder | IC50 (nM), neutralization of TGF-β1-induced IL-11 release by A549 cells (TGF-β1) [nM] | IC50 (nM), neutralization of TGF-β-induced IL-11 release by A549 cells (TGF-β2) [nM] | IC50 (nM), neutralization of TGF-β-induced IL-11 release by A549 cells (TGF-β3) [nM] | fold better neutralization potency than T2m-Fc (A549 IL-11 release assay) (TGF-β3) [fold] | fold better neutralization potency than T22d35 (A549 IL-11 release assay) (TGF-β3) [fold] | IC50 (nM), neutralization of TGF-β-induced IL-11 release by A549 cells (TGF-β1) [nM] | fold better neutralization potency than T2m-Fc (A549 IL-11 release assay) (TGF-β1) [fold] | fold better neutralization potency than T22d35 (A549 IL-11 release assay) (TGF-β1) [fold]
1 | T22d35-Fc-IgG2-v2 (CC) (Fc fusion) IPPHVQKSVNNDMIVTDNNGAVKFPQLCKFCDVRFSTCDNQKSCMSNCSITSICEKPQEVCVAVWRKNDENITLETVCHDPKLPYHDFILEDAASPKCIMKEKKKPGETFFMCSCSSDECNDNIIFSEEYNTSNPDIPPHVQKSVNNDMIVTDNNGAVKFPQLCKFCDVRFSTCDNQKSCMSNCSITSICEKPQEVCVAVWRKNDENITLETVCHDPKLPYHDFILEDAASPKCIMKEKKKPGETFFMCSCSSDECNDNIIFSEEYNTSNPDVECPPCPAPPVAGPSVFLFPPKPKDTLMISRTPEVTCVVVDVSHEDPEVQFNWYVDGVEVHNAKTKPREEQFNSTFRVVSVLTVVHQDWLNGKEYKCKVSNKGLPAPIEKTISKTKGQPREPQVYTLPPSREEMTKNQVSLTCLVKGFYPSDISVEWESNGQPENNYKTTPPMLDSDGSFFLYSKLTVDKSRWQQGNVFSCSVMHEALHNHYTQKSLSLSPG | 0.00278 |  |  |  |  |  |  | 
2 | T22d35-Fc fusion protein (TβRII-ECD doublet fused to the N-terminus of a human IgG2 Fc, hinge …) (Fc fusion) IPPHVQKSVNNDMIVTDNNGAVKFPQLCKFCDVRFSTCDNQKSCMSNCSITSICEKPQEVCVAVWRKNDENITLETVCHDPKLPYHDFILEDAASPKCIMKEKKKPGETFFMCSCSSDECNDNIIFSEEYNTSNPDIPPHVQKSVNNDMIVTDNNGAVKFPQLCKFCDVRFSTCDNQKSCMSNCSITSICEKPQEVCVAVWRKNDENITLETVCHDPKLPYHDFILEDAASPKCIMKEKKKPGETFFMCSCSSDECNDNIIFSEEYNTSNPDERKCCVECPPCPAPPVAGPSVFLFPPKPKDTLMISRTPEVTCVVVDVSHEDPEVQFNWYVDGVEVHNAKTKPREEQFNSTFRVVSVLTVVHQDWLNGKEYKCKVSNKGLPAPIEKTISKTKGQPREPQVYTLPPSREEMTKNQVSLTCLVKGFYPSDISVEWESNGQPENNYKTTPPMLDSDGSFFLYSKLTVDKSRWQQGNVFSCSVMHEALHNHYTQKSLSLSPG | 0.00286 | 10.6 | 0.00391 | 24 | 240 | 0.00335 | 615 | 970

Reference: patent US20220204587A1
